Measured values taken from patent US20210277138A1 (BLACK BELT THERAPEUTICS, published 2021).
Numbering of substitutions follows the chain as printed. Blank lines part the entries; values can stand above or below the binder they belong to.

Assays:
[1] = molecular target: T1, human CD38 expressed on cells (Daudi cells, human PBMC / T cells) (human, UniProt P28907 1-300); assay: flow cytometry on human PBMC, gated on CD4-positive cells, fluorescent secondary antibody [lower panel (gated on CD4-positive cells]
T1 construct: Endogenous CD38 on Daudi cells and on CD4+/CD8+ human PBMC; also called CD38 expressed in PBMCs; CD38 expression human cell line (Daudi)
T1 sequence: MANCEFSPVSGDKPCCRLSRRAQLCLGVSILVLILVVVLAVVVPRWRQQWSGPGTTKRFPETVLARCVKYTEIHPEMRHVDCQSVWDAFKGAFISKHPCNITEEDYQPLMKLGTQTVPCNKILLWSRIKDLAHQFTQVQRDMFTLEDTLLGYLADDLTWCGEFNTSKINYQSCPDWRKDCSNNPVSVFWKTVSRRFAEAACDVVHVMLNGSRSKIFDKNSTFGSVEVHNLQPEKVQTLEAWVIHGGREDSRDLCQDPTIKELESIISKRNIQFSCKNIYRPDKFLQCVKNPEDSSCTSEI

[2] = molecular target: T1, human CD38 expressed on cells (Daudi …); assay: flow cytometry on human PBMC, gated on CD8-positive cells, fluorescent secondary antibody [upper panel (gated on CD8-positive cells]
[3] = molecular target: T1, human CD38 expressed on cells (Daudi …); assay: cell-based or functional assay
[4] = molecular target: T1, human CD38 expressed on cells (Daudi …); assay: cell-based or functional assay; remark: listed apart in the source

EC50 (read off the curve) [1]: ~0.07 nM
EC50 (read off the curve) [2]: ~0.07 nM
ADCC EC50 ug/ml, target Daudi cells, experiment 1 [3]: 0.011 µg/mL
ADCC EC50 ug/ml, target Daudi cells, experiment 2 [3]: 0.0062 µg/mL
ADCC target lysis EC50 [4]: 6.2 ng/mL
ADCC target lysis Max. % lysis [4]: 49%
B1: aCD38-b-329 (antibody, human IgG1, V domains shown)
VH: QLQLQESGPGLVKPSETLSLTCTVSGGSISSSDYYWGWIRQPPGKGLEWIGSIYYSGSTYYNPSLKSRVTISVDTSKNQFSLKLSSVTAADTAVYYCARGQYSSGWYAYPFDMWGQGTMVTVSS
VL: EIVLTQSPGTLSLSPGERATLSCRASQSVRSSYLAWYQQKPGQAPRLLIYGASSRATGIPDRFSGSGSGTDFTLTISRLEPEDFAVYYCQQDGAVFTFGGGTKVEIK

ADCC target lysis EC50 [4]: 3.5 ng/mL
ADCC target lysis Max. % lysis [4]: 43%
B2: aCD38-b-329-m7 (antibody, IgG1, V domains shown)
VH: B1 VH
VL: B1 VL with G93S

ADCC target lysis EC50 [4]: 2.4 ng/mL
ADCC target lysis Max. % lysis [4]: 47%
B3: aCD38-b-329-m6 (antibody, IgG1, V domains shown)
VH: B1 VH
VL: B1 VL with G93E
